# Patent publication EP3470429A1 (Numab Innovation AG, dated 2019)
# How the values were obtained:
# [1] = target: T1, human PD-L1 expressed on cells (human, UniProt Q9NZQ7 19-290); assay: cell-based or functional assay
# [2] = target: T1, human PD-L1 expressed on cells; assay: cell-based or functional assay; remark: listed apart in the source
# [3] = target: T1, human PD-L1 expressed on cells; assay: cell-based or functional assay; remark: listed apart in the source
# [4] = target: T1, human PD-L1 expressed on cells; assay: cell-based or functional assay; remark: listed apart in the source
# [5] = target: T2, human PD-L1-Fc chimeric protein (human, UniProt Q9NZQ7 19-238); assay: SPR Biacore T200, PD-L1-Fc captured by anti-human Fc
# T2 construct: not shown: Fc part, captured by an anti-human IgG Fc antibody
# [6] = target: human CD137-Fc chimeric protein (human) (UniProt Q07011); assay: SPR Biacore T200, CD137-Fc captured by anti-human Fc
# Chain of human CD137-Fc chimeric protein (human) (Q07011 24-186 limits assumed, change not shown): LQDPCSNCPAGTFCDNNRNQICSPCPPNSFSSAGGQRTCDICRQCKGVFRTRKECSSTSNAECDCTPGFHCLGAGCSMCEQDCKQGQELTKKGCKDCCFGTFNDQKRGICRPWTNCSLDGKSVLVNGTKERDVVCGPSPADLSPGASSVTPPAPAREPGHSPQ
# [7] = target: T3, mouse serum albumin (mouse, UniProt P07724 25-608); assay: assay not given
# T3 construct: also called MSA
# T3 sequence (P07724 25-608 limits assumed): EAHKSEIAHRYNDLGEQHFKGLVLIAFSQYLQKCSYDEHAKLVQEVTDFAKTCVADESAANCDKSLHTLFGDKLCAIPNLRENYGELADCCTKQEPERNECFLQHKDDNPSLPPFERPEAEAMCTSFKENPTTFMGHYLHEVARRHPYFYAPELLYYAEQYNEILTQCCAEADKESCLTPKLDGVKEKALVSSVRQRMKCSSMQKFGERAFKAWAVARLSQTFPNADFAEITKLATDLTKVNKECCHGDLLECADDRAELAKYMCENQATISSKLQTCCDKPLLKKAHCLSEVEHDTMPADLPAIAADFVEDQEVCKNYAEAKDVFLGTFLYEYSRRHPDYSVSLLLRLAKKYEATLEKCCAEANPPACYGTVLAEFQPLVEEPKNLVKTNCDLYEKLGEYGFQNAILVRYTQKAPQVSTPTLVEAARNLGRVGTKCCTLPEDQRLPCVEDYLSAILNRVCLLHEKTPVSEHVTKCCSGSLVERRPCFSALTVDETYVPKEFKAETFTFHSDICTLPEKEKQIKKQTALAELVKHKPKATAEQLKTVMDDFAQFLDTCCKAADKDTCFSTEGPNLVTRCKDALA
# [8] = target: T4, recombinant human PDL1 extracellular domain (human, UniProt Q9NZQ7 19-238); assay: competition ELISA, PD-1 coated, biotinylated PD-L1 in solution, with HSA
# T4 construct: also called hPDL1; hPDL1 ECD
# [9] = target: T5, human serum albumin (human, UniProt P02768 25-609); assay: SPR Biacore T200, SA amine-coupled to CM5 chip, pH 5.5
# T5 construct: also called HSA; human SA
binder,measurement,setting,value
PRO885 (bispecific antibody) DIQMTQSPSSLSASVGDRVTITCQASQSINDYLAWYQQKPGKAPKLLIYKASTLASGVPSRFSGSGSGTDFTLTISSLQPEDFATYYCQQGYIITDIDNVFGTGTKVTVLGGGGGSQVQLQESGPGLVKPSETLSLTCKVSGFSFSNSYWICWIRQPPGKGLEWIGCTFVGSSDSTYYANWAKGRVTISVDSSKNQFSLKLSSVTAADTAVYYCARHPSDAVYGYANNLWGQGTLVTVSSGGGGSGGGGSGGGGSGGGGSIQMTQSPSSLSASVGDRVTITCQASQSINNVLAWYQQKPGKAPKLLIYRASTLASGVPSRFSGSGSGTDFTLTISSLQPEDFATYYCQSSYGNYGDFGTGTKVTVLGGGGGSQVQLQESGPGLVKPSETLSLTCKVSGFSFSSGYDMCWIRQPPGKGLEWIGCVVAGSVDITYYASWAKGRVTISVDSSKNQFSLKLSSVTAADTAVYYCARKDAYSDAFNLWGQGTLVTVSS,"IC50 (ng/ml), NF-AT Potency assay",[1],137 ng/mL
same,"EC50 (ng/ml) of IL-2 secretion, PBMC with CHO cells expressing PD-L1; 1 ug/ml anti-CD3, 50000 CHO cells/well",[2],12.8 ng/mL
same,"EC50 (ng/ml) of IL-2 secretion, PBMC with CHO cells expressing PD-L1; 1 ug/ml anti-CD3, 100000 CHO cells/well",[2],86.2 ng/mL
same,"EC50 (ng/ml) of IL-2 secretion, PBMC with CHO cells expressing PD-L1; 1 ug/ml anti-CD3, 200000 CHO cells/well",[2],80.6 ng/mL
same,"EC50 (ng/ml) of IL-2 secretion, PBMC with CHO cells expressing PD-L1; 2 ug/ml anti-CD3, 50000 CHO cells/well",[2],52 ng/mL
same,"EC50 (ng/ml) of IL-2 secretion, PBMC with CHO cells expressing PD-L1; 2 ug/ml anti-CD3, 100000 CHO cells/well",[2],41.9 ng/mL
same,"EC50 (ng/ml) of IL-2 secretion, PBMC with CHO cells expressing PD-L1; 2 ug/ml anti-CD3, 200000 CHO cells/well",[2],30.1 ng/mL
same,"EC50 in ng/ml of IL-2 secretion, PBMC assay using SEA stimulation",[3],39.9 ng/mL
PRO1126 (bispecific antibody) DFQLTQSPSSLSASVGDRVTITCQASQSINDYLAWYQQKPGKSPKLLIYKASTLASGVPSRFSGSGSGTDFTLTISSLQPEDFATYYCQQGYIITDIDNVFGTGTKVTVLGGGGGSQVQLQESGPGLVKPSETLSLTCKVSGFSFSNSYWICWIRQPPGKGLEWIGCTFVGSSDSTYYANWAKGRVTISVDSSKNQFSLKLSSVTAADTAVYYCARHPSDAVYGYANNLWGQGTLVTVSSGGGGSGGGGSGGGGSGGGGSIQMTQSPSSLSASVGDRVTITCQASQSINNVLAWYQQKPGKAPKLLIYRASTLASGVPSRFSGSGSGTDFTLTISSLQPEDFATYYCQSSYGNYGDFGTGTKVTVLGGGGGSQSQLQESGPGLVKPSETLSLTCKASGFSFSSGYDMCWVRQPPGKGLEWIACVVAGSVDITYYASWAKGRVTISKDSSKNQVSLKLSSVTAADTAVYFCARKDAYSDAFNLWGQGTLVTVSS,"IC50, NFAT reporter gene assay",[4],48.1 ng/mL
same,fold improvement of neutralization potency against PRO885,[4],3 fold
same,fold improvement in affinity compared to the CDR graft (PRO885),[5],20 fold
"PRO1124 (bispecific antibody, also called 38-02-A04 sc06 Full scDb-i/33_03_G02 sc01 scDb-o) DIQMTQSPSSLSASVGDRVTITCQASQSINDYLAWYQQKPGKAPKLLIYKASTLASGVPSRFSGSGSGTDFTLTISSLQPEDFATYYCQQGYIITDIDNVFGTGTKVTVLGGGGGSQVQLQESGPGLVKPSETLSLTCKASGFSFSNSYWICWVRQPPGKGLEWIGCTFVGSSDSTYYANWAKGRVTISKDSSKNQVSLKLSSVTAADTAVYFCARHPSDAVYGYANNLWGQGTLVTVSSGGGGSGGGGSGGGGSGGGGSLQMTQSPSSLSASVGDRVTITCQASQSINNVLAWYQQKPGKPPKLLIYRASTLASGVPSRFSGSGSGTDFTLTISSLQPEDFATYYCQSSYGNYGDFGTGTKVTVLGGGGGSQVQLQESGPGLVKPSETLSLTCKVSGFSFSSGYDMCWIRQPPGKGLEWIGCVVAGSVDITYYASWAKGRVTISVDSSKNQFSLKLSSVTAADTAVYYCARKDAYSDAFNLWGQGTLVTVSS",binding result,[5],binds
same,fold improvement of affinity compared to PRO885,[6],> 200 fold
"PRO1057 (other, also called 38_02_A04 sc01 scDb-i/33-03-G02 sc01 scDb-o/mxr HSA (23-13-A01-sc03, sk17sh4)) DIQMTQSPSSLSASVGDRVTITCQASQSINDYLAWYQQKPGKAPKLLIYKASTLASGVPSRFSGSGSGTDFTLTISSLQPEDFATYYCQQGYIITDIDNVFGTGTKVTVLGGGGGSQVQLQESGPGLVKPSETLSLTCKVSGFSFSNSYWICWIRQPPGKGLEWIGCTFVGSSDSTYYANWAKGRVTISVDSSKNQFSLKLSSVTAADTAVYYCARHPSDAVYGYANNLWGQGTLVTVSSGGGGSGGGGSGGGGSGGGGSIQMTQSPSSLSASVGDRVTITCQASQSINNVLAWYQQKPGKAPKLLIYRASTLASGVPSRFSGSGSGTDFTLTISSLQPEDFATYYCQSSYGNYGDFGTGTKVTVLGGGGGSQVQLQESGPGLVKPSETLSLTCKVSGFSFSSGYDMCWIRQPPGKGLEWIGCVVAGSVDITYYASWAKGRVTISVDSSKNQFSLKLSSVTAADTAVYYCARKDAYSDAFNLWGQGTLVTVSSGGGGSGGGGSVVMTQSPSSLSASVGDRVTITCQASQIISSRSAWYQQKPGQPPKLLIYQASKLASGVPSRFSGSGSGTDFTLTISSLQPEDFATYYCQCTYIDSNFGAFGGGTKLTVLGGGGGSGGGGSGGGGSGGGGSEVQLVESGGGLVQPGGSLRLSCAASGFSFSSSYWICWVRQAPGKGLEWVGCVFTGDGTTYYASWAKGRFTISRDNSKNTVYLQMNSLRAEDTATYFCARPVSVYYYGMDLWGQGTLVTVSS",binding result,[7],binds
same,fold higher IC50 in presence of human serum albumin,[8],~2 fold
same,"IC50 (ng/ml), NF-AT Potency assay, with HSA",[1],665 ng/mL
same,binding result,[9],binds
PRO997 (scFv) scFv: DIQMTQSPSSLSASVGDRVTITCQASQSIGTYLAWYQQKPGKAPKLLIYRAFILASGVPSRFSGSGSGTDFTLTISSLQPEDFATYYCQSNFYSDSTTIGPNAFGTGTKVTVLGGGGGSGGGGSGGGGSGGGGSQVQLQESGPGLVKPSETLSLTCKVSGFSFNSDYWIYWIRQPPGKGLEWIGSIYGGSSGNTQYASWAQGRVTISVDSSKNQFSLKLSSVTAADTAVYYCARGYVDYGGATDLWGQGTLVTVSS,"IC50 (ng/ml), NF-AT Potency assay",[1],11.1 ng/mL
same,"EC50 in ng/ml of IL-2 secretion, PBMC assay using SEA stimulation",[3],40.9 ng/mL
